Publication PMC12284214, “Structural basis for the activity regulation of Medicago calcium channel CNGC15” (Cell Discovery, 2025)

Molecular target: the molecule itself
Assay: cryo-EM structure; MtCNGC15b alone, in 25 mM Tris pH 8.0, 150 mM NaCl, 0.006% GDN; 3.1 Å; also with 5 mM cGMP (no structural change)

B1: Medicago truncatula CNGC15b (natural protein, M. truncatula, UniProt G7JND3 1-620, looked up)
chain: MVTPKFMSDLFEGDHLELAKLTSPNGDNGIKFNEKHVAPRVLSRVFSEDYKRVKRRRRIFDPRGQTIHQWNKIFLVACLISLFVDPLFFYLPIVQDEVCIDIGIAVEVFLIIIRSIADVFYVIHIFMRFHTAYVAPSSRVFGRGELVIDSSKIASRYLHKGFFLDFIAALPLPQVLIWIVIPNLGGSTIANTKNVLRFIIIIQYLPRLFLIFPLSSQIVKATGVVTETAWAGAAYNLMLYMLASHVLGACWYLLSIERQEACWKSVCKLEESSCQFDFFDCNMVKDSLRVSWFVTSNVTNLCSPNSLFYQFGIYGDAVTSKVTTSAFFNKYFFCLWWGLRNLSSLGQGLLTSTFVGEIMFAIVIATLGLVLFALLIGNMQTYLQSTTVRLEEWRVKRTDTEQWMHHRQLPQELRQSVRKYDQYKWIATRGVDEESLLRGLPLDLRRDIKRHLCLELVRRVPLFDAMDERMLDAICERLKPALCTENTYLVREGDPVNEMLFIIRGNLDSYTTDGGRTGFFNSCRIGPGDFCGEELLTWALDPRPTMVIPSSTRTVKAISEVEAFALIAEDLKFVASQFRRLHSKQLRNKLRFHSHQWRTWAACFIQVAWRRTIQEKKGSC
notes: residues 58-385 were modelled in the apo map; In the functional rows the protein was made from cRNA in Xenopus oocytes with that signal peptide; also called MtCNGC15b; MtCNGC15; source: HEK293F, transfected; purified (anti-Flag M2, Strep-Tactin, SEC) in GDN; not shown: Flag, C-terminal, kept; TwinStrep, C-terminal, kept
B1: binds.
